These results are taken from patent US20180214548A1 (SHANGHAI YUNYI HEALTHCARE AND TECHNOLOGY, published 2018).

The target in test [1] is T1, full length human PD-1 on cells (human, UniProt Q15116 25-288).
T1 construct: Also used here for PD-1 on human T cells/PBMC; also called CHO-K1-hPD-1; hPD-1
Nature of the test: flow cytometry, CHO-K1-hPD-1 cells; antibody 0.1 nM. The text has this:
(§1) CHO-K1 cells were stably transfected with pIRES plasmid containing the nucleic acid sequence encoding full length human PD-1 (see Example 2, step 2) to generate CHO-K1 cells stably expressing human PD-1 (herein referred to as CHO-K1-hPD-1 cells). Other CHO-K1 were stably transfected with pIRES plasmid containing the nucleic acid sequence encoding full length cyno PD-1 to generate CHO-K1 cells stably expressing cyno PD-1 (herein referred to as CHO-K1-cPD-1 cells). CHO-K1-hPD-1 and CHO-K1-cPD-1 cells were cultured and expanded in T-75 culture flasks to 90% confluence. The culture media was aspirated, and the cells were washed twice with HBSS (Hanks Balanced Salt Solution, Invitrogen). The cells were treated with enzyme-free cell dissociation solution (Versene solution, Invitrogen) and collected. The cells were then washed twice with HBSS, cell counts were determined, and cells were resuspended with HBSS at 2×10⁶ cells/mL. Goat serum was added to the cell suspension to a final concentration of 1%, and the cells were blocked for 30 minutes on ice and then washed twice with HBSS. The cells were collected after centrifugation and resuspended in FACS buffer (HBSS+1% BSA, v/v) at 2×10⁶ cells/mL. 100 uL of the cell suspension were then added to each well of 96-well plate. 100 uL of purified anti-PD-1 antibodies from Example 2 were added to each well of the 96-well plate and incubated for 2 hours on ice. […] The samples were washed three times with FACS buffer, and 100 uL fixation buffer (4% paraformaldehyde v/v) were added to each well and incubated for 10 minutes. The cells were then washed twice with FACS buffer and resuspended in 100 uL FACS buffer. The mean fluorescence intensity (MFI) was determined using FACS Calibur (BD), and the results are shown in FIGS. 7-8 and in Tables 10-11.
In general terms: Flow cytometry measures light scatter and fluorescence of single cells or particles in a stream.

For test [2], the target named is T1, full length human PD-1 on cells. Nature of the test: flow cytometry, CHO-K1-hPD-1 cells; antibody 1 nM.
Description: as §1

The target is the same in test [3]. Kind of test: flow cytometry, CHO-K1-hPD-1 cells; antibody 3.16 nM.
Description: as §1

Test [4] shares this target. Nature of the test: flow cytometry, CHO-K1-hPD-1 cells; antibody 10 nM.
Description: as §1

Test [5] addresses T2, human PD-1^ECD-hFc protein (Immunogen A) (human, UniProt Q15116 25-167).
T2 construct: Biotinylated for the Octet assay; also called PD-1-hFc; hPD-1^ECD-hFc; not shown: human IgG Fc fragment (hFc)
Nature of the test: ELISA, coated human PD-1ECD-hFc; antibody 100 nM. The procedure:
(§2) 100 uL of the diluted recombinant proteins were added to each well of 96-well plate. The plates were sealed with plastic film and incubated at 4° C. overnight. The plates were washed twice with wash buffer (PBS+0.01% (v/v) Tween20), and incubated with blocking buffer (PBS+0.01% (v/v) Tween20+1% (w/w) BSA) at room temperature for 2 hours. The blocking buffer was aspirated away, and 100 uL of purified anti-PD-1 antibodies were added to each well and incubated for 2 hours at 37° C. The plates were washed three times with wash buffer (PBS+0.01% (v/v) Tween20). HRP-conjugated secondary antibody (Sigma) was added to each well and incubated for 2 hours at 37° C. After the plates were washed three times with wash buffer, 100 uL TMB substrate was added to each well and incubated for 30 minutes at room temperature. 100 uL stop solution (0.1N HCl) was added to each well to stop the reaction. The absorbance at 450 nm was measured with an ELISA plate reader (384plus SpectraMax, Molecular Devices).

Test [6] concerns the target T2, human PD-1^ECD-hFc protein (Immunogen A). Kind of test: ELISA, coated human PD-1ECD-hFc; antibody 0.01 nM. The procedure: as §2
For orientation: An ELISA detects its analyte on a solid surface through an enzyme-linked reagent.

Test [7] has the same target. Nature of the test: ELISA, coated human PD-1ECD-hFc; antibody 10 nM. The procedure:
as §2

Test [8] has the same target. Kind of test: ELISA, coated human PD-1ECD-hFc; antibody 0.0001 nM. How it is done:
as §2

In test [9] the target is T1, full length human PD-1 on cells. Nature of the test: flow cytometry, CHO-K1-hPD-1 cells; antibody 0.0316 nM.
Description: as §1

The target is the same in test [10]. Nature of the test: flow cytometry, CHO-K1-hPD-1 cells; antibody 0.316 nM.
Description: as §1

In test [11] the target is T2, human PD-1^ECD-hFc protein (Immunogen A). Nature of the test: ELISA, coated human PD-1ECD-hFc; antibody 0.1 nM. How it is done: as §2
Test [12] deals with T1, full length human PD-1 on cells. Nature of the test: flow cytometry, CHO-K1-hPD-1 cells; antibody 100 nM.
Description: as §1

Test [13] has as its target T2, human PD-1^ECD-hFc protein (Immunogen A). Nature of the test: ELISA, coated human PD-1ECD-hFc; antibody 0.00001 nM. How it is done: as §2
For test [14] the target is unchanged. Nature of the test: ELISA, coated human PD-1ECD-hFc; antibody 1 nM. How it is done: as §2
Test [15] shares this target. Kind of test: ELISA, coated human PD-1ECD-hFc; antibody 0.001 nM. The procedure: as §2
Test [16] deals with T1, full length human PD-1 on cells. Kind of test: flow cytometry, CHO-K1-hPD-1 cells; antibody 31.6 nM.
Description: as §1

In test [17] the target is T3, ICOS (human, UniProt Q9Y6W8 21-140, limits assumed).
T3 sequence (looked up): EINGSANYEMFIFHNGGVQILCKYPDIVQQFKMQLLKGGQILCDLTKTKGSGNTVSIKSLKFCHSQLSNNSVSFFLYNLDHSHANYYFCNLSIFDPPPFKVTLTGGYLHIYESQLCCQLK
Nature of the test: ELISA, coated protein 1 ug/mL; antibody concentration not stated. How it is done:
as §2

Test [18] concerns the target T4, CTLA4 (human, UniProt P16410 37-162, limits assumed).
T4 sequence (looked up): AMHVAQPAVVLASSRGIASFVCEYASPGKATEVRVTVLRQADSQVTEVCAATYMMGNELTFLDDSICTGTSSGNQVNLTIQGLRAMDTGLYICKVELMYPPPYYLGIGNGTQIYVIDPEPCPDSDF
The description is as above. The procedure:
as §2

Test [19] deals with T5, CD28 (human, UniProt P10747 19-152). The description is as above. How it is done: as §2
Test [20] has as its target T6, cyno PD-1^ECD-hFc protein (cyno monkey, UniProt B0LAJ3 25-167).
T6 construct: Prepared by the method for Immunogen A; also called Cyno Monkey PD-1^ECD-hFc; cyno monkey PD-1-hFc; not shown: human IgG Fc fragment (hFc) and its junction to the ECD
Kind of test: ELISA, coated cyno PD-1ECD-hFc; antibody 10 nM. The procedure:
as §2

Test [21] has as its target T3, ICOS. Kind of test: ELISA on coated protein (Table 9). How it is done: as §2
Another test concerns the target T7, B7-1 (human, UniProt P33681 35-242).
T7 sequence (looked up): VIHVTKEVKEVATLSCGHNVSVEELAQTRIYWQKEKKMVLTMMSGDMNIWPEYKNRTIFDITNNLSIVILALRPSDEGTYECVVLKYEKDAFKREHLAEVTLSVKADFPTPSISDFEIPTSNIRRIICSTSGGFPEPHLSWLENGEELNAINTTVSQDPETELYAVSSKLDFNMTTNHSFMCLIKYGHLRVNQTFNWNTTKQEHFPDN
Nature of the test: ELISA on coated protein (Table 9). The procedure:
as §2

The target in test [22] is T4, CTLA4. Nature of the test: ELISA on coated protein (Table 9). How it is done:
as §2

Test [23] concerns the target T5, CD28. Kind of test: ELISA on coated protein (Table 9). How it is done:
as §2

The target of test [24] is T6, cyno PD-1^ECD-hFc protein. Nature of the test: ELISA, coated cyno PD-1ECD-hFc; antibody 100 nM. The procedure: as §2
For test [25], the target named is T6, cyno PD-1^ECD-hFc protein. Nature of the test: ELISA, coated cyno PD-1ECD-hFc; antibody 0.1 nM. The procedure: as §2
The target in test [26] is T6, cyno PD-1^ECD-hFc protein. Nature of the test: ELISA, coated cyno PD-1ECD-hFc; antibody 1 nM. The procedure:
as §2

Test [27] addresses T6, cyno PD-1^ECD-hFc protein. Kind of test: ELISA, coated cyno PD-1ECD-hFc; antibody 0.01 nM. The procedure: as §2

T2 sequence (Q15116 25-167): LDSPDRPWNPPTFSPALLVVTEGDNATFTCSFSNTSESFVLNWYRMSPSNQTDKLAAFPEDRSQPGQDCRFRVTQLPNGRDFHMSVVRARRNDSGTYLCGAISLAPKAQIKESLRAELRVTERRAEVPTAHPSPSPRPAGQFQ
T6 sequence (B0LAJ3 entry or part of it limits assumed): as the sequence (Q15116 25-167) above, with D2E, P10A, V19L, T35A, Q75R counted along it
T1 sequence (Q15116 25-288 limits assumed): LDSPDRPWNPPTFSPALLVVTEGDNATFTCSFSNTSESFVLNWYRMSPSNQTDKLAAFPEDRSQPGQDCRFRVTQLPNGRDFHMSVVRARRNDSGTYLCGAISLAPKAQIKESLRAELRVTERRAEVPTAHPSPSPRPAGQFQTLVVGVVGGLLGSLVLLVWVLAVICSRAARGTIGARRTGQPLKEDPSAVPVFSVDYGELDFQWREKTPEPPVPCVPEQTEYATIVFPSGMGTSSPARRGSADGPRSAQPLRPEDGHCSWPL
T5 sequence (P10747 19-152 limits assumed): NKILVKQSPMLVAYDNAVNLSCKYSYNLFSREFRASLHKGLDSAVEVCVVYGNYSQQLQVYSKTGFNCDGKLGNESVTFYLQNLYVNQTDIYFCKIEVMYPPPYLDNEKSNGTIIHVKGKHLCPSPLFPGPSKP

B1: chimeric anti-PD-1 antibody 226C3A7 (antibody, V domains shown)
VH: QVQLQQSGPGLVNPSQTLSLTCAISGDSVSSNSGAWNWIRQSPSRGLEWLGRTYYRSKWYNDYGISVQSRITINPDTSKNHFSLQLNSVTPEDTAVYYCARDPYYYGSGSYFDYWGQGTLVTVSS
VL: EIVMTQSPATLSVSPGERVTLSCRASLSVNSNLAWYQQKPGQAPRLLIYDTSTRATGVPARFSGSGSGTEFTLTISSLQSEDFAVYYCQQYHYWPLTFGGGTKVEIK
notes: Purified from hybridoma of Harbour H2L2 mice: human variable regions, rat constant regions
For the molecule B1, the Mean fluorescence intensity was 3.2 in [1]; 5.2 in test [2]; 22.9 in [3]; 203 in test [4]; 4.1 in test [9]; 3.4 in test [10]. Moreover, the Mean fluorescence intensity in [12] was determined as 825; in test [16] it was 826. Further, the OD450 nm in test [5] stood at 2.83; in test [6], 0.9; in test [7], 2.86; in test [8], 0.4; in test [11], 2.54; in [13] it was 0.39. The OD450 nm was 2.86 in test [14] and 0.45 in test [15].

B2: chimeric anti-PD-1 antibody 223G6B5 (antibody, V domains shown)
VH: QVQLQESGPGLVKPSETLSLTCAVSGHSIRGSYFWGWIRQPPGRGLEWIGSIYHSGSTYTNPSLKSRATISVDTSKNQFSLKLNSVTAADTAVYYCARDLDIATTRDYWGQGTLVTVSS
VL: DIQLTQSPSFLSASVGDRVTIICRASQGINNYLAWYQQKPGKAPKLLIYAASTLQSGVPSRFSGSGSGTEFTLTISSLQPEDFATYYCQQLDSYPRTFGQGTKVEIKR
notes: as for B1
B2: the OD450 nm in the test with ICOS [17] is 0.14; with CTLA4 [18] it was 0.106; with CD28 [19] it was 0.166; in test [20], 2.74; in test [24], 2.7; in test [25], 1.28. In addition, the OD450 nm in test [26] was 2.61; in test [27], 0.342. For the same molecule, the binding result in the test with ICOS [21], with B7-1, with CTLA4 [22] and in the test with CD28 [23] was “no binding” in each case.

B3: chimeric anti-PD-1 antibody 204C5E12 (antibody, V domains shown)
VH: QVQLVESGGGVVQPGRSLRLSCAASGFSFSYYGMHWVRQAPGKGLEWVAVIWYDGSNKYYADSVKGRFTISRDNSKNTLYLQMNSLRAEDTAVYYCASGITLVRGADYYYNYDMDVWGQGTTVTVSS
VL: not shown
notes: as for B1
As for B3, the Mean fluorescence intensity in [1] worked out at 2.9; in [2] it was 5; in [3], 21.4; in test [4] it was 160; in test [9], 3; in test [10], 3. For the same molecule, the Mean fluorescence intensity turned out to be 1490 in test [12] and 986 in test [16]. Also, the OD450 nm came to 2.77 in test [5]; 0.68 in test [6]; 2.84 in test [7]; 0.43 in test [8]; 2.13 in test [11]; 0.43 in test [13]. The OD450 nm in [14] is 2.87; in test [15], 0.48.
